For 14 molecules, normalised SPOT signal, Boehringer light units (BLU); mean over the file's lines of this peptide results are on record in article PMC314469, “Protein Interaction Networks by Proteome Peptide Scanning” (PLoS Biology, 2004).

T1: Yfr024 SH3 (LSB3_YEAST), P43603
T1 chain: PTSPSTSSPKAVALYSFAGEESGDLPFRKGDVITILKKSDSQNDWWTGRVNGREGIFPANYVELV

T2: Boi2 SH3 (BOI2_YEAST), P39969
T2 chain: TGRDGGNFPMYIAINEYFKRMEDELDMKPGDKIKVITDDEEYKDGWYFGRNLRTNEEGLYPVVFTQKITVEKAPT

T3: Rvs167 SH3 (RV167_YEAST), P39743
T3 chain: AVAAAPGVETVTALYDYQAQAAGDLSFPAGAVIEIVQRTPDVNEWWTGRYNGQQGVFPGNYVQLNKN

T4: Boi1 SH3 (BOI1_YEAST), P38041
T4 chain: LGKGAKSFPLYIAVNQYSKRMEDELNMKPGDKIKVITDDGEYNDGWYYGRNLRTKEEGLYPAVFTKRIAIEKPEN

T5: Myo5 SH3 (MYO5_YEAST), Q04439
T5 chain: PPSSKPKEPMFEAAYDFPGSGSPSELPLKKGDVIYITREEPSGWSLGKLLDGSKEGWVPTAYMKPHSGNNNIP

T6: Yhr016c SH3 (YSC84_YEAST), P32793
T6 chain: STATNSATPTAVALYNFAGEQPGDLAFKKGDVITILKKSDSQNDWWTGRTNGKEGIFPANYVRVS

B1: YLL010C 80-93 (peptide)
chain: NDNEKKKPSSPTAA
B2: YMR072W 36-49 (peptide)
chain: NELIKQGPKRPTSA
B3: Q0045 434-447 (peptide)
chain: NGMPRRIPDYPDAF
B4: YHR108W 109-122 (peptide)
chain: NELVKRFPGHPPLR
B5: YJL041W 186-199 (peptide)
chain: NDDKKTEPDKPAFS
B6: YBR108W 539-552 (peptide)
chain: NAPERAVPILPPRN
B7: YBR156C 157-170 (peptide)
chain: NESEKSSPWSPYKV
B8: YDL126C 668-681 (peptide)
chain: NAQLRKTPLEPGLE
B9: YKL204W 475-488 (peptide)
chain: NFPQRMMPPPPGLV
B10: YBR195C 105-118 (peptide)
chain: NDLVKRFPEQPPLR
B11: YIL095W 742-755 (peptide)
chain: NGKDKSRPPRPPPK
B12: YOR188W 2-15 (peptide)
chain: NDMAKPLPTPPTAE
B13: YDR283C 1060-1073 (peptide)
chain: NAPPRIFPKAPIYG
B14: YFR038W 287-300 (peptide)
chain: NEFAKFAPDLPVLK

Chain of Sho1 SH3 (SHO1_YEAST), P40073 (P40073 295-366): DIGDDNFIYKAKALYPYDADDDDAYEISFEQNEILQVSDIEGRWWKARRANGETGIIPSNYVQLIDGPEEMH

One assay has as its target Sho1 SH3 (SHO1_YEAST), P40073. Description: SPOT array.
Turning to B1, the normalised SPOT signal, Boehringer light units (BLU); mean over the file's lines of this peptide turned out to be 39.5.
Same read-out and setting: with B2 the figure was 32.2.
Turning to B3, the normalised SPOT signal, Boehringer light units (BLU); mean over the file's lines of this peptide stood at 28.9.
The same measure, in the same setting: with B4 the figure was 37.2; with B5, 26; with B6, 52.7.
In turn, B7 gave a normalised SPOT signal, Boehringer light units (BLU); mean over the file's lines of this peptide of 26.5.
In turn, B8 displayed a normalised SPOT signal, Boehringer light units (BLU); mean over the file's lines of this peptide of 48.6.
The same measure, in the same setting: with B9 the figure was 74.5.
The same measure, in the same setting: next, B10: 12100; B11: 2640.
Same read-out and setting: next, B12: 13000; B13: 140; B14: 99.4.

A further assay deals with T1, Yfr024 SH3 (LSB3_YEAST), P43603. Briefly: SPOT array.
Molecule B1 displayed a normalised SPOT signal, Boehringer light units (BLU); mean over the file's lines of this peptide of 36.9.
Molecule B2 gave a normalised SPOT signal, Boehringer light units (BLU); mean over the file's lines of this peptide of 246.
Consider B3, for which the normalised SPOT signal, Boehringer light units (BLU); mean over the file's lines of this peptide was 1300.
Still for that read-out and setting: next, B4: 211.
The molecule B5 registered a normalised SPOT signal, Boehringer light units (BLU); mean over the file's lines of this peptide of 63.4.
The same measure, in the same setting: next, B6: 24400; B7: 408.
On the same count and under the same terms, with B8 the figure was 371; with B9, 679.
On to B10, for which the normalised SPOT signal, Boehringer light units (BLU); mean over the file's lines of this peptide came to 1590.
B11 gave a normalised SPOT signal, Boehringer light units (BLU); mean over the file's lines of this peptide of 12900.
Still for that read-out and setting: with B12 the figure was 710; with B13, 2080.
B14 registered a normalised SPOT signal, Boehringer light units (BLU); mean over the file's lines of this peptide of 132.

Another assay addresses T2, Boi2 SH3 (BOI2_YEAST), P39969. Description: SPOT array.
Turning to B1, the normalised SPOT signal, Boehringer light units (BLU); mean over the file's lines of this peptide amounted to 61.
Turning to B2, the normalised SPOT signal, Boehringer light units (BLU); mean over the file's lines of this peptide was 22.
B3 returned a normalised SPOT signal, Boehringer light units (BLU); mean over the file's lines of this peptide of 318.
Regarding B4, the normalised SPOT signal, Boehringer light units (BLU); mean over the file's lines of this peptide came out at 7.9.
In the case of B5, the normalised SPOT signal, Boehringer light units (BLU); mean over the file's lines of this peptide was found to be 17.3.
Still for that read-out and setting: with B6 the figure was 83; with B7, 28.4; with B8, 88.8.
In turn, B9 returned a normalised SPOT signal, Boehringer light units (BLU); mean over the file's lines of this peptide of 28.4.
B10 showed a normalised SPOT signal, Boehringer light units (BLU); mean over the file's lines of this peptide of 4920.
Still for that read-out and setting: with B11 the figure was 31.9; with B12, 54; with B13, 40.1.
In the case of B14, the normalised SPOT signal, Boehringer light units (BLU); mean over the file's lines of this peptide turned out to be 12.3.

The target of the next assay is T3, Rvs167 SH3 (RV167_YEAST), P39743. Description: SPOT array.
In turn, B1 displayed a normalised SPOT signal, Boehringer light units (BLU); mean over the file's lines of this peptide of 80.7.
Still for that read-out and setting: with B2 the figure was 60.6; with B3, 338; with B4, 55.2.
With B5, the normalised SPOT signal, Boehringer light units (BLU); mean over the file's lines of this peptide was found to be 47.9.
Still for that read-out and setting: next, B6: 16500.
On the same count and under the same terms, next, B7: 74.7.
Same read-out and setting: next, B8: 116.
In turn, B9 showed a normalised SPOT signal, Boehringer light units (BLU); mean over the file's lines of this peptide of 67.9.
B10: the normalised SPOT signal, Boehringer light units (BLU); mean over the file's lines of this peptide is 23000.
Turning to B11, the normalised SPOT signal, Boehringer light units (BLU); mean over the file's lines of this peptide is 127.
Same read-out and setting: next, B12: 56.7.
Still for that read-out and setting: with B13 the figure was 156.
The same measure, in the same setting: next, B14: 69.

For another assay, the target named is T4, Boi1 SH3 (BOI1_YEAST), P38041. Briefly: SPOT array.
In the case of B1, the normalised SPOT signal, Boehringer light units (BLU); mean over the file's lines of this peptide amounted to 212.
In the case of B2, the normalised SPOT signal, Boehringer light units (BLU); mean over the file's lines of this peptide was found to be 462.
Still for that read-out and setting: with B3 the figure was 404; with B4, 733.
In the case of B5, the normalised SPOT signal, Boehringer light units (BLU); mean over the file's lines of this peptide came out at 52.4.
Still for that read-out and setting: next, B6: 3280; B7: 96.5.
Still for that read-out and setting: next, B8: 156; B9: 228; B10: 75800.
On the same count and under the same terms, with B11 the figure was 664.
B12 had a normalised SPOT signal, Boehringer light units (BLU); mean over the file's lines of this peptide of 71.
The same measure, in the same setting: with B13 the figure was 8550.
B14: the normalised SPOT signal, Boehringer light units (BLU); mean over the file's lines of this peptide was determined as 24.4.

A further assay deals with T5, Myo5 SH3 (MYO5_YEAST), Q04439. Description: SPOT array.
B1: the normalised SPOT signal, Boehringer light units (BLU); mean over the file's lines of this peptide is 98.5.
Still for that read-out and setting: next, B2: 176; B3: 223.
On to B4, for which the normalised SPOT signal, Boehringer light units (BLU); mean over the file's lines of this peptide is 300.
Regarding B5, the normalised SPOT signal, Boehringer light units (BLU); mean over the file's lines of this peptide was determined as 140.
For the molecule B6, the normalised SPOT signal, Boehringer light units (BLU); mean over the file's lines of this peptide is 741.
On the same count and under the same terms, next, B7: 222; B8: 176; B9: 618.
Still for that read-out and setting: with B10 the figure was 21400.
Same read-out and setting: next, B11: 2620; B12: 114; B13: 168.
B14: the normalised SPOT signal, Boehringer light units (BLU); mean over the file's lines of this peptide is 135.

For another assay, the target named is T6, Yhr016c SH3 (YSC84_YEAST), P32793. Briefly: SPOT array.
As to B1, the normalised SPOT signal, Boehringer light units (BLU); mean over the file's lines of this peptide stood at 20.6.
Molecule B2 gave a normalised SPOT signal, Boehringer light units (BLU); mean over the file's lines of this peptide of 17.2.
For the molecule B3, the normalised SPOT signal, Boehringer light units (BLU); mean over the file's lines of this peptide turned out to be 858.
The same measure, in the same setting: with B4 the figure was 101; with B5, 37.1; with B6, 36600.
B7 returned a normalised SPOT signal, Boehringer light units (BLU); mean over the file's lines of this peptide of 30.5.
On the same count and under the same terms, with B8 the figure was 79.9; with B9, 95.9; with B10, 1430.
Same read-out and setting: with B11 the figure was 162.
Same read-out and setting: with B12 the figure was 203; with B13, 186; with B14, 7.9.
